US20260234245A1 (ELTHERA, published 2026)

What was measured:
[1] = target: T1, recombinant human NrCAM-human Fc fusion protein (human, UniProt Q92823 25-1167, limits assumed); test: direct ELISA on plate-coated human NrCAM (panel titled 'human NrCAM-His'; the text calls it an NrCAM-human Fc fusion), HRP goat anti-mouse detection
T1 construct: also called plate-coated human NrCAM; Neuronal cell adhesion molecule (NrCAM)
Description: (§1) Recombinant human L1CAM-human Fc and human NrCAM-human Fc fusion proteins, as well as recombinant hexahistidine-tagged versions of human CHL1 and Neurofascin, respectively, were added to ELISA plates at a concentration of 1 μg/mL in 50 mM carbonate buffer pH 9.6 (100 μL per well). Plates were incubated overnight at 4° C., washed 5 times with PBS/0.05% Tween, and blocked by the addition of 200 μL per well PBS/0.05% Tween/1% Bovine serum albumin (BSA). […] As positive controls the same dilution series were prepared for commercial mouse antibodies directed against L1CAM (clone UJ127.11, NovusBio), human NrCAM (clone 308000, Creative Diagnostics), human CHL1 (clone 6E6E4, Sino Biological) and human Neurofascin (clone 727030, R&D systems). Plates were washed 5 times with PBS/0.05% Tween, and 100 μL per well of the antibody dilution series were added to the plates. After an incubation for 1 hour at room temperature, plates were washed again and 100 μL per well of a horse-radish peroxidase conjugated polyclonal goat anti-mouse antibody (diluted 1:1000 in PBS/0.05% Tween/1% BSA) was added. […] After an incubation of 8 minutes at room temperature, reactions were stopped by the addition of 50 μL per well 0.16 M H₂SO₄, and absorption at 450 nm was determined in a microplate reader.

[2] = target: T2, recombinant hexahistidine-tagged human Neurofascin (human, UniProt O94856 25-1217, limits assumed); test: direct ELISA on plate-coated human Neurofascin-His, HRP goat anti-mouse detection
T2 construct: Hexahistidine-tagged; also called plate-coated human Neurofascin
T2 sequence (looked up): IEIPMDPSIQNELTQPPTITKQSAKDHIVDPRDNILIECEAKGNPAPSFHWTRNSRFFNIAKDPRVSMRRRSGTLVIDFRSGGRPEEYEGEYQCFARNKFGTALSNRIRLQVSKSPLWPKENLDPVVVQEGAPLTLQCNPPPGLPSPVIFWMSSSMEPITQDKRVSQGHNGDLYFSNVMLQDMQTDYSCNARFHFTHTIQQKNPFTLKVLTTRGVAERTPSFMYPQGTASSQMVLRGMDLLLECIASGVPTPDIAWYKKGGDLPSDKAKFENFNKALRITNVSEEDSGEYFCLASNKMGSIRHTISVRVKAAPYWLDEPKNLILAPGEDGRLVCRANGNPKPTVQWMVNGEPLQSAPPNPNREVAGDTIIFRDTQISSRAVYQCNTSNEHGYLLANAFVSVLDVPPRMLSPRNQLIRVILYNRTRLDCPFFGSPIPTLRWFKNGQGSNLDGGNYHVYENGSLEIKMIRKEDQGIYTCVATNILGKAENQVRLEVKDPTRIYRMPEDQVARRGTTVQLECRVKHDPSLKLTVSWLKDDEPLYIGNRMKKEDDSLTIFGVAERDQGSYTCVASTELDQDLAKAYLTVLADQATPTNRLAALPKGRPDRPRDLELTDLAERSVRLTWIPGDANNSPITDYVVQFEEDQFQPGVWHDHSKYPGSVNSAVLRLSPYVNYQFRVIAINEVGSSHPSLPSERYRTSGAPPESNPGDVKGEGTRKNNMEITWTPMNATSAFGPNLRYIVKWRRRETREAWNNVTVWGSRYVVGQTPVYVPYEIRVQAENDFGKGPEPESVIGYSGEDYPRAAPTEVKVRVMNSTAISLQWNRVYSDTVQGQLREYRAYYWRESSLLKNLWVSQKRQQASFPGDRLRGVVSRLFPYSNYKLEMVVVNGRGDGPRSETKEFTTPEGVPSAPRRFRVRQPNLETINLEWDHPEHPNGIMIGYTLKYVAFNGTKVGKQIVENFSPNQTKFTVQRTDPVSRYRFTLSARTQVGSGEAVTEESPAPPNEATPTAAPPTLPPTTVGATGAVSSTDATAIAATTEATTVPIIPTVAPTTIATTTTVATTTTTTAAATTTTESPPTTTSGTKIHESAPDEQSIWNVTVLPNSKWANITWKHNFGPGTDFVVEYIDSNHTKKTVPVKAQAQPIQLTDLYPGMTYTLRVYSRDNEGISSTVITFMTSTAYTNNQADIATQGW
Description: as §1

[3] = target: T3, recombinant hexahistidine-tagged human CHL1 (human, UniProt O00533 25-1082, limits assumed); test: direct ELISA on plate-coated human CHL1-His, HRP goat anti-mouse detection
T3 construct: Hexahistidine-tagged; also called plate-coated human CHL1; close homolog of L1 (CHL1)
T3 sequence (looked up): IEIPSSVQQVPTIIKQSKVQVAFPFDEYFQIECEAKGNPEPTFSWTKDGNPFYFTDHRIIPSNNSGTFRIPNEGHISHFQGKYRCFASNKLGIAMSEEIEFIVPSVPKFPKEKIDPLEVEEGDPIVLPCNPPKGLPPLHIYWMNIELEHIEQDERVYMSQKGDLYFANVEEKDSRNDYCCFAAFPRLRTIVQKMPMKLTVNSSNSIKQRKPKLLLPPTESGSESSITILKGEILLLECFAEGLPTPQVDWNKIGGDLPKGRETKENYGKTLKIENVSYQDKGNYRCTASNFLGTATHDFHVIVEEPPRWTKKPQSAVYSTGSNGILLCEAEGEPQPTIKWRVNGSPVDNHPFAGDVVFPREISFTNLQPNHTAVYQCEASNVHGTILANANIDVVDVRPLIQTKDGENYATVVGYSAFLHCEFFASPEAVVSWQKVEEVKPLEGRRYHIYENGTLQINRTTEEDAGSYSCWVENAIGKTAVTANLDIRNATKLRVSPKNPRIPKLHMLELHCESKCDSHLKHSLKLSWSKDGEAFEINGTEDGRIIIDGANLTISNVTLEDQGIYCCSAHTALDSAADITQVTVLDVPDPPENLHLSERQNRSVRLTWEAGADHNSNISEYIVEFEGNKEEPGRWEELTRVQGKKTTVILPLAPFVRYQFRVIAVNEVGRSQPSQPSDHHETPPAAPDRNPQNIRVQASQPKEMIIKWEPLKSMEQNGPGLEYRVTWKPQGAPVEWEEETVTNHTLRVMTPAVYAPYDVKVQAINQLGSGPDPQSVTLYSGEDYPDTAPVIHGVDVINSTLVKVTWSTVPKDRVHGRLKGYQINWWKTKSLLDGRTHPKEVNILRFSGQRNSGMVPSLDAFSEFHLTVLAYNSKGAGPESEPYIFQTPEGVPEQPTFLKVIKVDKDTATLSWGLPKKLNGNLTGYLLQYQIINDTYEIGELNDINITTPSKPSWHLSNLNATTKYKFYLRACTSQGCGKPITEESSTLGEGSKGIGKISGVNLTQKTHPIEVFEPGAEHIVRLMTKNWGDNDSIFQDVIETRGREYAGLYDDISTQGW
Description: as §1

T1 sequence (Q92823 25-1167 limits assumed): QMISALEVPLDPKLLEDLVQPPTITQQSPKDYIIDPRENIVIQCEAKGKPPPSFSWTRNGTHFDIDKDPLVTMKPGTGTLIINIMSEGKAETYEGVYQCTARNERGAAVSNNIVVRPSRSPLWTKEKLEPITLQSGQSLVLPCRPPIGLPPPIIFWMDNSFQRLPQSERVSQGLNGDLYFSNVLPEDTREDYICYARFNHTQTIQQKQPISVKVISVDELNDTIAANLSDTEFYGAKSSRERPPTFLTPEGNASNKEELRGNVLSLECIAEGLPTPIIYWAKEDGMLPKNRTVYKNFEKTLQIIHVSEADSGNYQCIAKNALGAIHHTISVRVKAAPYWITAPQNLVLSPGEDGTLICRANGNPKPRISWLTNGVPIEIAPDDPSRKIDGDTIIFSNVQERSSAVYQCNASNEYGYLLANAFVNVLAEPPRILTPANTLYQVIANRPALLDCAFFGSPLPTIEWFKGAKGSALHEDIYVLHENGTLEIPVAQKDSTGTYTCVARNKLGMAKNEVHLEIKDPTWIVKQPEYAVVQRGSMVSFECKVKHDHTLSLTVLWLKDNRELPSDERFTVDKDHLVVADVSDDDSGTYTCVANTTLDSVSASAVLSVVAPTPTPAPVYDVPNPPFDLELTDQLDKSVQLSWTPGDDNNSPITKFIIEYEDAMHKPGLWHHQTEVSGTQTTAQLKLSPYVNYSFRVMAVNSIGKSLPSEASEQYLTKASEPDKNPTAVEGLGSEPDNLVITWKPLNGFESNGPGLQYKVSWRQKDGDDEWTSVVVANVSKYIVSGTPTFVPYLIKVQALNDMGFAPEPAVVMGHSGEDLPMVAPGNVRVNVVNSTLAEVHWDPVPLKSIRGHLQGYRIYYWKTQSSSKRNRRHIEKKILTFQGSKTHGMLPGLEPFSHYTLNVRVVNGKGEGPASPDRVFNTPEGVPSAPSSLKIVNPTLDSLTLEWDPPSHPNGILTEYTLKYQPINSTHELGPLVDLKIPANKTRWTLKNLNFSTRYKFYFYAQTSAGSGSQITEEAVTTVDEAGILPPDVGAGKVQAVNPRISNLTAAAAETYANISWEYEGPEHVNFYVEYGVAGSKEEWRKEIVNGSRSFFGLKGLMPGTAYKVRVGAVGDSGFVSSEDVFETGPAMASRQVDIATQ

- binding result [1]: no binding (tested: 1 µg/mL)
- binding result [2]: no binding (tested: 1 µg/mL)
- binding result [3]: no binding (tested: 1 µg/mL)
B1: OV549.20 mouse IgG2a (antibody, V domains shown)
VH: DVQLQESGPGLVKPSQSLSLTCTVTGYSITSDYAWNWIRQFPGNKVEWMGYISYSGSFSYHPSLKSRISITRDTSKNQFFLQLSSVTTEDTATYYCARSFSYGYGFAYWGQGTLVTVSS
VL: DIVMTQSHKFMSTSVGDRVNITCKASQDVSSAVAWYQQKPGQSPKLLIYSASYRYTGVPDHFTGSGSGTDFTFTISSVQAEDLAVYYCQQHYSTPWTFGGGTKLEIKR
modifications: N-glycosylation motif Asn-Ile-Thr in the variable region; glycosylated and non-glycosylated light chain forms present
notes: Recombinant mouse IgG2a expressed in CHO K1 cells; also called OV549.20 (murine); mAb OV549.20
